# Source: US20120034228A1 (MICROMET, published 2012)
# Numbering of substitutions follows the chain as printed. In names and notes the source's numbering stands.
# T1: 1-27 CD3-EpCAM comprising the marmoset 27 mer (Callithrix jacchus; cynomolgus)
# T1 construct: on transfected cells
# T1 chain: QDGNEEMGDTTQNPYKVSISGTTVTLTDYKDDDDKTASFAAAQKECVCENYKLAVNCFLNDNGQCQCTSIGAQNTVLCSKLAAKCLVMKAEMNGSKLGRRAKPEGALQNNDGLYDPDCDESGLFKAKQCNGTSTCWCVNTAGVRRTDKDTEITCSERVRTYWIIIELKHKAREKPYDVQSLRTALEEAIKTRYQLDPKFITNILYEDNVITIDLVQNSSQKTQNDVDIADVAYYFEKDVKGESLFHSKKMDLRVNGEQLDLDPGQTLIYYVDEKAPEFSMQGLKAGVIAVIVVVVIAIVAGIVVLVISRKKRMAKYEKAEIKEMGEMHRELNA
# T2: 1-27 CD3-EpCAM comprising the human 27 mer (human; cynomolgus)
# T2 construct: on transfected cells
# T2 chain: T1 chain with D9G, T10I, N13T, T25I
# T3: 1-27 CD3-EpCAM comprising the squirrel monkey 27 mer (Saimiri sciureus; cynomolgus)
# T3 construct: on transfected cells
# T3 chain: T1 chain with M7I
# B1: A2J HLP (scFv)
# scFv: EVQLLESGGGLVQPGGSLKLSCAASGFTFNVYAMNWVRQAPGKGLEWVARIRSKYNNYATYYADSVKKRFTISRDDSKNTAYLQMNNLKTEDTAVYYCVRHGNFGNSYLSWWAYWGQGTLVTVSSGGGGSGGGGSGGGGSELVVTQEPSLTVSPGGTVTLTCRSSTGAVTSGYYPNWVQQKPGQAPRGLIGATDMRPSGTPARFSGSLLGGKAALTLSGVQPEDEAEYYCALWYSNRWVFGGGTKLTVL
# notes: crude periplasmic preparation, Flag and His6 tags
# B2: E2M HLP (scFv)
# scFv: B1 scFv with V31G, K68E, G102R, W112F
# notes: as for B1
# B3: 86D2HL (scFv)
# scFv: EVQLLESGGGLVQPGGSLKLSCAASGFDFSTYWMSWVRQAPGKGLEWIGEINPDSSTINYTPSLKDKFIISRDNAKNTLYLQMNKVRSEDTALYYCAGGYYRYPYYYTMDYWGQGTTVTVSSGGGGSGGGGSGGGGSELVMTQSPASLSASVGETVTITCRASGNIHNYLAWYQQKQGKSPQLLVYNAKTLADGVPSRFSGSGSGTQYSLKINSLQPEDFGSYYCQHFWSTPYTFGGGTKLEIK
# notes: periplasmic preparation
# B4: 86F2HL (scFv)
# scFv: B3 scFv with I58V, N84T, V140Q
# notes: periplasmic preparation
# B5: 86C12HL (scFv)
# scFv: B3 scFv with T31R, Y32S, N84S, V140Q
# notes: periplasmic preparation
# B6: 86F12HL (scFv)
# scFv: B3 scFv with K19N, E89D, V140Q
# notes: periplasmic preparation
# B7: 87G9HL (scFv)
# scFv: B3 scFv with T31R, N84S
# notes: periplasmic preparation
# B8: 86D6HL (scFv)
# scFv: B3 scFv with N84T, S88P, N165S
# notes: periplasmic preparation
# B9: 86E5HL (scFv)
# scFv: B3 scFv with T31R, Y32S, N84S, V140Q, G164E, H167Y, N168S, D193E, G205R
# notes: periplasmic preparation
# B10: 86F10HL (scFv)
# scFv: B3 scFv with E89D, A146S
# notes: periplasmic preparation
# B11: MCSP-G4 HLP x E2M HLP (bispecific antibody)
# chain: QVQLVQSGAEVKRPGASMKVSCKASGYTFTNYYIHWVRQAPGQGLEWMGWINPNSGATNYAQKFQGRVTMTRDTSTSTVYMELSSLRSEDTAVYYCAKSWVSWFASWGQGTLVTVSSGGGGSGGGGSGGGGSELVMTQSPDSLAVSLGERATINCKSSQSVLNSSNNRNYLAWYQQKPGQPPKLLIYWASTRESGVPDRFSGSGSGTDFTLTISGLQAEDVAVYYCQQHYSTPFTFGPGTKVDIKSGGGGSEVQLLESGGGLVQPGGSLKLSCAASGFTFNGYAMNWVRQAPGKGLEWVARIRSKYNNYATYYADSVKERFTISRDDSKNTAYLQMNNLKTEDTAVYYCVRHRNFGNSYLSWFAYWGQGTLVTVSSGGGGSGGGGSGGGGSELVVTQEPSLTVSPGGTVTLTCRSSTGAVTSGYYPNWVQQKPGQAPRGLIGATDMRPSGTPARFSGSLLGGKAALTLSGVQPEDEAEYYCALWYSNRWVFGGGTKLTVL
# notes: C-terminal His6 tag added
# Target: T4, 1-27 CD3-Fc (human)
# T4 construct: aa 1-27 of mature human CD3 epsilon, hinge and Fc gamma of human IgG1, His6; also called human CD3 epsilon (aa 1-27)-Fc fusion protein; 27 aa huCD3E
# Experiment: ELISA on captured 1-27 CD3-Fc
row,binding result,Binder
1,binds,B1
2,binds,B2

# Target: macaque FAPalpha (on CHO cells) (macaque (Cynomolgus))
# Sequence (chain, as listed by the source): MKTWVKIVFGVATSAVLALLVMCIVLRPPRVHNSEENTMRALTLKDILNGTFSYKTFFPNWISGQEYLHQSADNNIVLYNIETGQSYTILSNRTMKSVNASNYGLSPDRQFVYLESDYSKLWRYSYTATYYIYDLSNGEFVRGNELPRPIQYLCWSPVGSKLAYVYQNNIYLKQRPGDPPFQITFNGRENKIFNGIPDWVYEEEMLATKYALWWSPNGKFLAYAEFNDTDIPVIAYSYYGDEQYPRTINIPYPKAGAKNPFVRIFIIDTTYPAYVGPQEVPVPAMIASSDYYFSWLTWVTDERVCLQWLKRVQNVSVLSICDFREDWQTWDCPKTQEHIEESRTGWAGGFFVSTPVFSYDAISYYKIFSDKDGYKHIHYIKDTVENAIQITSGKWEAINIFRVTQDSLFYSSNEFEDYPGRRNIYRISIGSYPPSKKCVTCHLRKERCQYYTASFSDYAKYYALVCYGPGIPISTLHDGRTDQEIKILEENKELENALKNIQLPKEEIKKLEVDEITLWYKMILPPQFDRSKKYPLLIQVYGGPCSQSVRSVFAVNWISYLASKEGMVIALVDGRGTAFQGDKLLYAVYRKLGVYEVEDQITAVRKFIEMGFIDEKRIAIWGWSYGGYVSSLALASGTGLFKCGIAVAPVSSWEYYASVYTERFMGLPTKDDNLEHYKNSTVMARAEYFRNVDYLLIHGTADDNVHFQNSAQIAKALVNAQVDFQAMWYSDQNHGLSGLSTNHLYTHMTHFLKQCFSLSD
# Experiment: FACS on CHO cells
row,binding result,Binder
1,binds,B3
2,binds,B4
3,binds,B5
4,binds,B6
5,binds,B7
6,binds,B8
7,binds,B9
8,binds,B10

# Target: human FAPalpha (on CHO cells) (human, UniProt Q12884 1-760)
# Experiment: FACS on CHO cells
row,binding result,Binder
1,binds,B3
2,binds,B4
3,binds,B5
4,binds,B6
5,binds,B7
6,binds,B8
7,binds,B9
8,binds,B10

# Target: T5, human CD3 (on the human CD3 positive T cell leukemia cell line HPB-ALL) (human, UniProt P07766 23-207)
# T5 construct: whole, on cells; native CD3 complex on T cells; also called human CD3 epsilon
# T5 sequence (P07766 23-207): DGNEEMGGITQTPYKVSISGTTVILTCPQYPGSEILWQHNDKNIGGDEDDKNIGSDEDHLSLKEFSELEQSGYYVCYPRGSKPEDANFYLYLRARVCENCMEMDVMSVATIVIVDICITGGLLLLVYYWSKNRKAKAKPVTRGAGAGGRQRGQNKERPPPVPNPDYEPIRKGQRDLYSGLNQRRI
# Experiment: FACS on HPB-ALL
row,binding result,Binder
1,binds,B11

# Target: T1, 1-27 CD3-EpCAM comprising the marmoset …
# Experiment: FACS on transfected 293-HEK cells
row,binding result,Binder
1,binds,B2

# Target: T2, 1-27 CD3-EpCAM comprising the human 27 …
# Experiment: FACS on transfected 293-HEK cells
row,binding result,Binder
1,binds,B2

# Target: T3, 1-27 CD3-EpCAM comprising the squirrel …
# Experiment: FACS on transfected 293-HEK cells
row,binding result,Binder
1,binds,B2
